Laboratory results from the supplement of paper PMC10567573.

B1: KCNK9 (parent)
chain: DVPDLQSVCSCTCYRSQDYGGRSV

Variants of: B1
Experiment: protein stability index of a GFP-peptide fusion (GPS, HEK-293T) (PSI 1-6); higher = more stable
Conditions: c terminus: a fixed tail appended
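Note: lentivirally expressed fusions sorted by FACS into six bins by GFP to DsRed ratio, PSI derived from sequencing read proportions per bin multiplied by bin number.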

Variant | protein stability index
RVPDLQSVCSCTCYRSQDYGGRSV [D1R] | 1.62
AVPDLQSVCSCTCYRSQDYGGRSV [D1A] | 1.54
KVPDLQSVCSCTCYRSQDYGGRSV [D1K] | 2.23
LVPDLQSVCSCTCYRSQDYGGRSV [D1L] | 2.59
NVPDLQSVCSCTCYRSQDYGGRSV [D1N] | 1.29
GVPDLQSVCSCTCYRSQDYGGRSV [D1G] | 1.26
TVPDLQSVCSCTCYRSQDYGGRSV [D1T] | 1.86
CVPDLQSVCSCTCYRSQDYGGRSV [D1C] | 1.04
HVPDLQSVCSCTCYRSQDYGGRSV [D1H] | 3.67
PVPDLQSVCSCTCYRSQDYGGRSV [D1P] | 2.33
MVPDLQSVCSCTCYRSQDYGGRSV [D1M] | 1.54
SVPDLQSVCSCTCYRSQDYGGRSV [D1S] | 2.29
EVPDLQSVCSCTCYRSQDYGGRSV [D1E] | 1.44
IVPDLQSVCSCTCYRSQDYGGRSV [D1I] | 1.33
VVPDLQSVCSCTCYRSQDYGGRSV [D1V] | 1.51
QVPDLQSVCSCTCYRSQDYGGRSV [D1Q] | 2.87
DVPCLQSVCSCTCYRSQDYGGRSV [D4C] | 1.64
DVPELQSVCSCTCYRSQDYGGRSV [D4E] | 2.06
DVPKLQSVCSCTCYRSQDYGGRSV [D4K] | 2.17
DVPSLQSVCSCTCYRSQDYGGRSV [D4S] | 1.86
DVPMLQSVCSCTCYRSQDYGGRSV [D4M] | 2.28
DVPILQSVCSCTCYRSQDYGGRSV [D4I] | 2.81
DVPFLQSVCSCTCYRSQDYGGRSV [D4F] | 1.4
DVPPLQSVCSCTCYRSQDYGGRSV [D4P] | 2.05

Variant | protein stability index
DVPYLQSVCSCTCYRSQDYGGRSV [D4Y] | 2.86
DVPTLQSVCSCTCYRSQDYGGRSV [D4T] | 2.48
DVPGLQSVCSCTCYRSQDYGGRSV [D4G] | 1.45
DVPQLQSVCSCTCYRSQDYGGRSV [D4Q] | 3.18
DVPNLQSVCSCTCYRSQDYGGRSV [D4N] | 2.07
DVPLLQSVCSCTCYRSQDYGGRSV [D4L] | 1.75
DVADLQSVCSCTCYRSQDYGGRSV [P3A] | 1.34
DVYDLQSVCSCTCYRSQDYGGRSV [P3Y] | 1.4
DVDDLQSVCSCTCYRSQDYGGRSV [P3D] | 1.36
DVMDLQSVCSCTCYRSQDYGGRSV [P3M] | 2.11
DVIDLQSVCSCTCYRSQDYGGRSV [P3I] | 2.22
DVHDLQSVCSCTCYRSQDYGGRSV [P3H] | 1.8
DVGDLQSVCSCTCYRSQDYGGRSV [P3G] | 1.41
DVQDLQSVCSCTCYRSQDYGGRSV [P3Q] | 1.93
DVNDLQSVCSCTCYRSQDYGGRSV [P3N] | 1.45
DVWDLQSVCSCTCYRSQDYGGRSV [P3W] | 1.33
DVKDLQSVCSCTCYRSQDYGGRSV [P3K] | 1.12
DVEDLQSVCSCTCYRSQDYGGRSV [P3E] | 2
DVCDLQSVCSCTCYRSQDYGGRSV [P3C] | 2.14
DVSDLQSVCSCTCYRSQDYGGRSV [P3S] | 1.99
DVTDLQSVCSCTCYRSQDYGGRSV [P3T] | 1.73
DVPDLLSVCSCTCYRSQDYGGRSV [Q6L] | 3.01
DVPDLPSVCSCTCYRSQDYGGRSV [Q6P] | 1.5
